Assay results taken from patent publication US20160185857A1 (SUPPREMOL, published 2016).

Columns and labels:
[1] = biological target: T1, native FcγRIIB, membrane-bound, endogenously expressed on human cells (Raji, Daudi, PBMC) (human, UniProt P31994 43-310); test: cell-based or functional assay
T1 sequence (looked up): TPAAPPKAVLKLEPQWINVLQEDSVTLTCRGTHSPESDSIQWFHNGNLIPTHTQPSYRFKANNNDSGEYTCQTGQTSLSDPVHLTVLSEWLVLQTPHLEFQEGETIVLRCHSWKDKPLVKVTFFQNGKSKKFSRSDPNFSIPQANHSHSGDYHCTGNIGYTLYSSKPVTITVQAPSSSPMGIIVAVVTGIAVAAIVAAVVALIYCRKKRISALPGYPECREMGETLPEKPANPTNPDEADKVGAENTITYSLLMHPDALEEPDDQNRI

[2] = biological target: T2, recombinant soluble human FcγRIIB (human, UniProt P31994 43-217); test: ELISA, sFcγRIIB coated on plates, hybridoma supernatant
T2 construct: also called sFcγRIIB
T2 sequence: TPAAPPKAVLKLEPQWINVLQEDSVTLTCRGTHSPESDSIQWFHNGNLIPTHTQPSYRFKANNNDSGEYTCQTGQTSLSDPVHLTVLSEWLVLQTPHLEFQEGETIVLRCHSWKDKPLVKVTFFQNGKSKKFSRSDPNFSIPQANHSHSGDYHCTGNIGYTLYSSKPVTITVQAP

[3] = biological target: T3, native FcγRIIA expressed on K562 cells (human, UniProt P12318 34-317); test: flow cytometry on K562 cells
T3 construct: whole, on cells
T3 sequence (looked up): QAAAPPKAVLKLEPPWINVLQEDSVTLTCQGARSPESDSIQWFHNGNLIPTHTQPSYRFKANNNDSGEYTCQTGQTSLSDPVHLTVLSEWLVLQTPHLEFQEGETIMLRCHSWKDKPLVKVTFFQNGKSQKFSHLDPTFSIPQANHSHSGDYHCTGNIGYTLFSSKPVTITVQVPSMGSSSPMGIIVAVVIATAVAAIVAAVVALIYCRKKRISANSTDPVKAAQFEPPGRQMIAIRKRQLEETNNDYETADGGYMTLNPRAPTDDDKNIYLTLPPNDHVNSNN
Experimental: FIG. 5: Binding of 15 μg/ml antibody (hu8A6_VH+hu8A6_VL and ch8A6_N297A) to native FcγRIIA expressed on K562 cells.
Raji and K562 cells were incubated with increasing concentrations of humanized antibodies and the chimeric antibody as control. Raji cells were used to test binding on FcγRIIB (FIG. 4), K562 cells to analyze unspecific binding to FcγRIIA (FIG. 5). Cell bound antibodies were detected with PE-conjugated secondary antibody.

B1: chGB3_N297A (chimeric GB3, prior art antibody of WO 2005/051999, N297A format) (antibody, V domains shown)
VH: VQLQQSGPELVKPGASVKISCKASGYTFTDYYIYWVKQWPGQGLEWIGWIFPGTGNTYYNENFKDKATLTIDRSSSTAYMLLGSLTSEDSAVYFCYGPFAYWGQ
VL: RIQLTQSPSSLSASLGERVSLTCRASQEISGYLSWLQQKPDGTIKRLIYATSALDSGVPKRFSGSGSGSNYSLTISSLESEDFADYYCLQYANYPYTFGGGTKL
maximum fold phospho-signal of the FcγRIIB ITIM against untreated cells, densitometry of Western blot, Daudi cells [1]: 2.8 fold

B2: monoclonal antibody 8A6 (rat IgG2a) (antibody, V domains shown)
VH: EVQLVESGGDLVQPGRSLRLSCAASGFTFSDYYMAWVRQAPKKGLEWVASISSDGSNTYYGDSVKGRFTISRDNTRSNLYLQMNSLRSEDTATYYCARPGDYWGQGVMVTVSS
VL: NIVMTQSPTSMFISVGDRVTMNCKASQNVGTYVDWFQQKTGQSPTLLIFGASNRYTGVPDRFTGSGSGTDFTLSISNMQAEDLAVYYCLQYNYHPYTFGPGTTLELKR
notes: Rat IgG2a from hybridoma supernatant; also called mAb 8A6; rat antibody 8A6
binding result [2]: binds

B3: ch8A6_N297A (chimeric 8A6, rat variable regions, human IgG1 N297A constant region, human kappa) (antibody)
heavy: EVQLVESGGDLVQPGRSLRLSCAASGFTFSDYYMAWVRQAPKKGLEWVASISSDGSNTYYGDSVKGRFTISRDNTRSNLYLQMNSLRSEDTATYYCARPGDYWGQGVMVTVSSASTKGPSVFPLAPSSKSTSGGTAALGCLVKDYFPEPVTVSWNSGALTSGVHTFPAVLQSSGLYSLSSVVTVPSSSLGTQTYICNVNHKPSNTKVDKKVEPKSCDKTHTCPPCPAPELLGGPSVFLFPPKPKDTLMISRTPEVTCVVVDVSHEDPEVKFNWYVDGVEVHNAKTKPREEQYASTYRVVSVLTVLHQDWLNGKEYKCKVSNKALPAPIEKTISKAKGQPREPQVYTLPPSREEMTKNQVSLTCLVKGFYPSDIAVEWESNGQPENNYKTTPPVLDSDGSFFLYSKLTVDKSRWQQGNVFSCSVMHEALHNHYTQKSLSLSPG
light: NIVMTQSPTSMFISVGDRVTMNCKASQNVGTYVDWFQQKTGQSPTLLIFGASNRYTGVPDRFTGSGSGTDFTLSISNMQAEDLAVYYCLQYNYHPYTFGPGTTLELKRTVAAPSVFIFPPSDEQLKSGTASVVCLLNNFYPREAKVQWKVDNALQSGNSQESVTEQDSKDSTYSLSSTLTLSKADYEKHKVYACEVTHQGLSSPVTKSFNRGEC
notes: also called chimeric 8A6_N297A
binding result [3]: no binding (tested: 15 µg/ml)
